For eleven sequences, Kd, IC50 and Ki results are on record in patent US20030180744.

For one series, the target named is PDGF-AB (Homo sapiens) (UniProt P04085+P01127). The series is described as follows: filter. The conditions noted are these: 2'-F pyrimidines; +/-7; random pool.
Series [1] concerns the target T1, KGF (hKGF) (Homo sapiens) (UniProt P21781).
T1 sequence: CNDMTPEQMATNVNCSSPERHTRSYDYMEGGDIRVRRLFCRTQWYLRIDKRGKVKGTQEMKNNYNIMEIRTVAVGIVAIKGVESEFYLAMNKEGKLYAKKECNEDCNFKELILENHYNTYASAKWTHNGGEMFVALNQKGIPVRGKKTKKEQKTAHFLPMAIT
The series is described as follows: filter.

The target in series [2] is T1, KGF (hKGF) (Homo sapiens). The series is described as follows: FP. Conditions: 2'-F pyrimidines; method is nitrocellulose filter binding; DPBS, 37 C.
Series [3] has as its target T1, KGF (hKGF) (Homo sapiens). The series is described as follows: competition. Conditions: 2'-F pyrimidines, PC-3 cells.

Chain of PDGF-AB (Homo sapiens) (P01127 82-190, chain 2 of 2, other chains not shown): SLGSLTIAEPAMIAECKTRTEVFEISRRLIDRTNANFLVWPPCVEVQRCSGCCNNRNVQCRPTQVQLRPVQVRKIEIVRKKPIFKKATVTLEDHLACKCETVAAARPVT

By Kd is commonly meant the free concentration of one partner at which half of the binding sites on the other are occupied at equilibrium, for simple one-to-one binding. A lower Kd goes with a tighter complex. As to “GGGAGACAAGAAUAACGCUCAANNNNNNNNNNNNNNNNNNNNNNNNNNNNNNNNNNNNNNNNNNNNNNNNNNUUCGACAGGAGGCUCACAACAGGC [random 2'-F RNA 50N]”, the Kd in the series with PDGF-AB (Homo sapiens) is 35 nM.

“GGGAGGACGAUGCGGAACGGAGAUGUCCCCUCAAMAUUUACCGUCUCCGUUUGCGCCCCAGACGACUCGCCCGA [31F]” yielded a Kd in series [1] (2'-F pyrimidines, DPBS, 37 C) of 1 nM. “GGGAGGACGAUGCGGCAANNNNNNNCUCUCUCCUGGCGUUCCGCAACCCGCCCCCAGACGACUCGCCCGA [19F]” had a Kd in series [1] (2'-F pyrimidines, second column 0.94-2.57, DPBS, 37 C) of 1.6 nM. Sequence “GGGAGGACGAUGCGGCAGUCUCCCUAGGUUUCAUCUCUGCAGCAUUCCGGGGUNCCAGACGACUCGCCCGA [51F]” registered a Kd in series [1] (2'-F pyrimidines, DPBS, 37 C) of 1.27 nM. In turn, “GGGAGGACGAUGCGGGAAUUAACAGGGCCAGAAUUCUCAUCUNNCUUCCCGUGACCCAGACGACUCGCCCGA [12F]” returned a Kd in series [2] of 1.38 nM. As for “GGGAGGACGAUGCGGGAAUUCCCAGCGCUUGACUGAUACAAACNUUCCCGUGCCCCAGACGACUCGCCCGA [16F]”, the Kd in series [1] (2'-F pyrimidines, biphasic, high affinity 49%, Kd2 3.39 nM) came out at 0.83 nM. Broadly, the IC50 is the point on the concentration scale where inhibition reaches its midpoint. As a reminder, the Ki is a dissociation constant, usually derived from enzyme kinetics or from competition with a known ligand. Read a high Ki as weaker binding. Sequence “GGGAGGACGAUGCGGGGACAAWYAGCGGUGUCUUUUCAUUUNKAUCCUCCGACRUCCCAGACGACUCGCCCGA [56F]” gave a Kd in series [1] (2'-F pyrimidines, biphasic, high affinity 32%, Kd2 3.00 nM, PC-3 Ki 0.16 nM) of 0.07 nM. The sequence also returned an IC50 in series [3] of 1 nM. The sequence also showed a Ki in series [3] (27.4 nM on NIH3T3/FGFR-2) of 0.16 nM. In turn, “GGGAGGACGAUGCGGNGACUGAUUUUUCCUUGNCAGUGUAAUUUCCUGGCUGCCCCAGACGACUCGCCCGA [38F]” came in with a Kd in series [1] (2'-F pyrimidines, DPBS, 37 C, PC-3 Ki 0.22 nM) of 0.33 nM. This sequence displayed an IC50 in series [3] of 0.6 nM. Also, the Ki in series [3] (20 nM on NIH3T3/FGFR-2) is 0.22 nM. In series [1] (2'-F pyrimidines, random pool), “GGGAGGACGAUGCGGNNNNNNNNNNNNNNNNNNNNNNNNNNNNNNNNNNNNNNNNCAGACGACUCGCCCGA [random 2'-F RNA 40N7]” showed a Kd of 30 nM. For the sequence “GGGAGGACGAUGCGGNNNNNNNNNNNNNNNNNNNNNNNNNNNNNNNNNNNNNNNNCAGACGACUCGCCCGA [random 2'-NH2 RNA 40N7]”, the Kd in series [1] (2'-NH2 pyrimidines, random pool) came to 30 nM. In turn, “GGGAGGACGAUGCGGUCGAGUGUUCUCCUUCGGUAACUAUUNNNNAUUUCGUGCCCAGACGACUCGCCCGA [44F]” registered a Kd in series [1] (2'-F pyrimidines, DPBS, 37 C) of 1.32 nM.
